Measured values taken from article PMC9044032, “OsbZIP47 Is an Integrator for Meristem Regulators During Rice Plant Growth and Development” (Frontiers in Plant Science, 2022).

T1: Trx-His-OsbZIP47 FL (Oryza sativa) (UniProt Q5Z6N9)
T1 sequence: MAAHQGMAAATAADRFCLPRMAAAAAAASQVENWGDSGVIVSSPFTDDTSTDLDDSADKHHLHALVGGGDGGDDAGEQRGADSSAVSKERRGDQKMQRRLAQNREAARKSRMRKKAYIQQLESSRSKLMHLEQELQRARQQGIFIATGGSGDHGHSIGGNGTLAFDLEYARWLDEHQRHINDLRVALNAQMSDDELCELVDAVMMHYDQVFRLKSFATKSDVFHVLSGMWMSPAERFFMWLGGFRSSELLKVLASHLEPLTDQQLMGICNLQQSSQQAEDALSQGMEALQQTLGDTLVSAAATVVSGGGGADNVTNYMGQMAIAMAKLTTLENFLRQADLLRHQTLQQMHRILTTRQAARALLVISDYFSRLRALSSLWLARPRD

B1: Thioredoxin-His-tagged OsbZIP47FL (natural protein, rice (Oryza sativa), UniProt Q5Z6N9 1-385, looked up)
chain: T1 sequence
notes: full-length CDS, amino acid 1 to 385; also called Trx-His-OsbZIP47 FL; Trx-His OsbZIP47; source: E. coli Rosetta (DE3), pET32a, purified

How the values were obtained:
[1] = biological target: T1, Trx-His-OsbZIP47 FL (Oryza sativa); assay: MST; conditions: MST: 10 mM HEPES-KOH pH 8.0, 50 mM NaCl, 0.5% Tween-20, 0.5 mM EDTA, 1 mM MgCl2, 10% glycerol, 80 nM protein, DNA 3.05 nM-100 uM, temperature not stated, EMSA: …
[2] = biological target: the molecule itself; assay: non-reducing SDS-PAGE; purified protein treated with 2 mM diamide, with 20 mM DTT, or with 2 mM diamide followed by 20 mM DTT; non-reducing 10% SDS-PAGE

Molecule	Kd ([1]; oxidized, 1 mM oxidized glutathione) [nM]	Kd ([1]; reduced, 20 mM DTT) [nM]	binding result [2]
CAGCTGGCCCTGACGTCAGCAACCGG (double strand) [OsFCP1 locus EMSA-371]	2160	815	–
B1	–	–	binds
